Measurements reported in patent US20180169189A1 (AUTOLUS, published 2018).

Legend:
[1] = biological target: T1, carboxy-terminal (endodomain) truncate of CD20 (human, UniProt P11836 2-236); assay: flow cytometry, transfected 293T cells
T1 construct: Expressed on transfected 293T cells, fused or co-expressed with eGFP (the text and the legend differ); also called CD20d
T1 sequence: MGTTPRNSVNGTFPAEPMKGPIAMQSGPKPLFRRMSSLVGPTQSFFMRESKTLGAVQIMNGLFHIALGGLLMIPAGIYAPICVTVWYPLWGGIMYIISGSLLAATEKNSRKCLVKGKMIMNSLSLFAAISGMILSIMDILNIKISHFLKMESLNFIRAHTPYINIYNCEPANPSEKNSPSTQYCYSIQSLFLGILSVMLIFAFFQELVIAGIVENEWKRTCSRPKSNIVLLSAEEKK
Excerpt: (§1) To this end: full-length CD20; an amino-terminal (endodomain) truncate of CD20; and a carboxy-terminal (endodomain) truncate of CD20 were each fused with eGFP.

[2] = biological target: T2, amino-terminal (endodomain) truncate of CD20 (human, UniProt P11836 42-297); assay: flow cytometry, transfected 293T cells
T2 construct: Expressed on transfected 293T cells, fused or co-expressed with eGFP (the text and the legend differ); As expressed in dCD20-FAS, the construct carries an extra N-terminal MG; also called dCD20
T2 sequence: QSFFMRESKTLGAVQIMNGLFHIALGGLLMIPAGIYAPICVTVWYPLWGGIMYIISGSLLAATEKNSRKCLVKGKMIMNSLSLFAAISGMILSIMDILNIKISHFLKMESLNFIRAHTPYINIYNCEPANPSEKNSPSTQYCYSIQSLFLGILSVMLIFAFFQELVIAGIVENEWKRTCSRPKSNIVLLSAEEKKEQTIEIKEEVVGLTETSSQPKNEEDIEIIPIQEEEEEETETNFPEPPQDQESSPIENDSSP
Excerpt: as §1

[3] = biological target: T3, CD20-P172W (human, UniProt P11836 1-297); assay: flow cytometry staining of transfected 293T cells
T3 construct: also called P172W mutated CD20
T3 sequence: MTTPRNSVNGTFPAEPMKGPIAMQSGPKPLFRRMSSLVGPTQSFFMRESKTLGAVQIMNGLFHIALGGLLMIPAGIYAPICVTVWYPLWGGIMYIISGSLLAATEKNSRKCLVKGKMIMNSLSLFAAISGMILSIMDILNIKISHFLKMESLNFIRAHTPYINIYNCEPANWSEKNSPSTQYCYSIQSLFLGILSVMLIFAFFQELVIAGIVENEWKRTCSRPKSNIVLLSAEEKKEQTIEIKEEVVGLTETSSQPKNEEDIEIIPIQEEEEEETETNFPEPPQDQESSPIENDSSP

binding result [1]: binds
binding result [2]: binds
binding result [3]: no binding
B1: Rituximab (antibody, V domains shown)
VH: QVQLQQPGAELVKPGASVKMSCKASGYTFTSYNMHWVKQTPGRGLEWIGAIYPGNGDTSYNQKFKGKATLTADKSSSTAYMQLSSLTSEDSAVYYCARSTYYGGDWYFNVWGAGTTVTVS
VL: QIVLSQSPAILSASPGEKVTMTCRASSSVSYIHWFQQKPGSSPKPWIYATSNLASGVPVRFSGSGSGTSYSLTISRVEAEDAATYYCQQWTSNPPTFGGGTKLEIKR
notes: also called Rituxumab; Rituxan
